One assay concerns the target T3 SAMase (Enterobacteria phage T3, UniProt P07693). The note with it: 2 mM SAM, 50 mM NaPi pH 7.4, 25°C.
Assay [1] has as its target His6-tagged Svi3-3_d19 (environmental phage). Kind of assay: SEC-SAXS; His6-tagged Svi3-3_d19 at 10-13 mg/ml with and without 5 mM SAM; Shodex KW403 column, 25 mM Tris-HCl pH 8.0, 150 mM NaCl.
Assay [2] has the same target. The assay is described as follows: SEC; HiLoad 16/60 Superdex 75 pg, 25 mM Tris-HCl, 150 mM NaCl, pH 8.0; His-tagged protein eluted from Ni Sepharose.
The target of assay [3] is Svi3-3_d19 (N-terminally truncated 146 amino acid construct of SAMase Svi3-3, hexahistidine tag removed) (environmental phage). Kind of assay: crystal structure; Svi3-3_d19 (10 mg/ml) crystallised with 5 mM SAM (product MTA bound), with 5 mM SAH, or without ligand; sitting drop, 293 K, 0.4-0.6 M ammonium phosphate; space group F4(1)32, one monomer in the asymmetric unit, trimer around the threefold crystallographic axis.

Assay [4] deals with Svi3-3_d19 E69A (environmental phage). Kind of assay: SEC; HiLoad 16/60 Superdex 75 pg, 25 mM Tris-HCl, 150 mM NaCl, pH 8.0; His-tagged protein eluted from Ni Sepharose.
The target of assay [5] is Svi3-3_d19 E69Q (environmental phage). The assay is described as above.
Assay [6] has as its target Svi3-3_d19 E105Q (environmental phage). The assay is described as above.

T3 SAMase, sequence (P07693 whole entry): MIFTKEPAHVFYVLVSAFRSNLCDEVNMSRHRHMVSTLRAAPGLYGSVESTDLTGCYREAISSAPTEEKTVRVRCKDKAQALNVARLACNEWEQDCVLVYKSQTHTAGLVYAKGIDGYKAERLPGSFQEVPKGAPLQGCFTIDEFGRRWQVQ

Take `C[S+](CC[C@H](N)C(=O)O)C[C@H]1O[C@@H](n2cnc3c(N)ncnc32)[C@H](O)[C@@H]1O` (stereo partly drawn) [SAM, S-(5’-Adenosyl)-L-methionine]: on T3 SAMase, the “TLC of reaction products; ion exchange chromatography” value was “The same assay was performed with T3 SAMase and Orf1”.
With His6-tagged Svi3-3_d19 (enzyme), the stoichiometry N in assay [1] and in assay [2] was 3 in each case.
In turn, “Svi3-3_d19 (N-terminally truncated 146 amino acid construct of SAMase Svi3-3, hexahistidine tag removed) (enzyme)” came in with a stoichiometry N in assay [3] of 3.
Regarding Svi3-3_d19 E69A (enzyme), the stoichiometry N in assay [4] stood at 3.
As to Svi3-3_d19 E69Q (enzyme), in assay [5], the stoichiometry N was determined as 3.
As for Svi3-3_d19 E105Q (enzyme), the stoichiometry N in assay [6] came out at 3.

These data come from article PMC7877911 (eLife, 2021).
